# Laboratory results taken from the DeepSol protein solubility set.
# Experiment: soluble on expression in E. coli; label from the status in PepcDB or PDB records
row,Sequence,soluble on expression in E. coli
1,MGSDKIHHHHHHMSTQYWEEEIEIMSREKLQELQLQRLKKTINIAANSPYYKEVFSKNGITGDSIQSLDDIRKIPFTTKSDMRANYPFGLVAGDMKRDGVRIHSSSGTTGNPTVIVHSQHDLDSWANLVARCLYMVGIRKTDVFQNSSGYGMFTGGLGFQYGAERLGCLTVPAAAGNSKRQIKFISDFKTTALHAIPSYAIRLAEVFQEEGIDPRETTLKTLVIGAEPHTDEQRRKIERMLNVKAYNSFGMTEMNGPGVAFECQEQNGMHFWEDCYLVEIIDPETGEPVPEGEIGELVLTTLDREMMPLIRYRTRDLTRILPGKCPCGRTHLRIDRIKGRSDDMFIIKGVNIFPMQVEKILVQFPELGSNYLITLETVNNQDEMIVEVELSDLSTDNYIELEKIRRDIIRQLKDEILVTPKVKLVKKGSLPQSEGKAVRVKDLRDNK,not soluble
2,MAHHHHHHMLECNTNSALMEAHFGVVHADQLVPRALSSHAAAAQLSGASKPDKTPTPSLPPGPFIVMGLYGRNVLVLIADGEGQTAVQIHVTRGVAEVAETFRKVAGTPLPPPALPLEPLSVPASPPESTMVAEAAAASRLVANDEVSQERPQAPETERREDQAGPVPATVTCIVAEETDAFMAPAADIAAAAAAEAQLCKDKAAGMRGVEGVCKEVGTATPVADEERHGGPPPTKEVILTDLHKAGETAAHACSSVVVEISQGVSISAASAPRTWRWSSTTSSSASSSSFDSHASQRLRQQQQQSRLEQIGEEQAHRSGPSTGRASAPSTPTDKVVEEVAEAWPTYGAQLLESAEEVTVVPAVTPATDDAPPLMTLPAAEHAMTSQNGEGVFQAEAAIGVVEAANTKTPGEKDVHYHDDGVVSADASLHGQSLLQLPEKDLSAPEGESEKHLQLGSSLAVQFFADHTPSLLPASSSMPRPSQQQHTGDAQEASLGTEVSFDEDGVDAHRLPATLESDCEERVQHVSGADADDVAGPVIAFQASSLLASVEQRGWANQAPPVRHVAIPAGEEVAVTTAMARSATAFTPSYSPPPASPADLRAAPRVWGAQGTSYPTSGPSPCAAAVGLQHHSAATPFTNFLKAYAVYVLGTHGAASGGESKQLRNGTAPHMNECAAGAGEASRGVAELASILDFYREQPLARIMEATAIQRRCRAAWNEVIASTPASAAAQVGSDVEVCKLKASASTTVFTELCVDELVSLLAIVHYPSPRQDG,not soluble
3,MDDATNKKRKVFVSTILTFWNTDRRDFPWRHTRDPYVILITEILLRRTTAGHVKKIYDKFFVKYKCFEDILKTPKSEIAKDIKEIGLSNQRAEQLKELARVVINDYGGRVPRNRKAILDLPGVGKYTCAAVMCLAFGKKAAMVDANFVRVINRYFGGSYENLNYNHKALWELAETLVPGGKCRDFNLGLMDFSAIICAPRKPKCEKCGMSKLCSYYEKCST,soluble
4,MGHHHHHHGGHMSLAAQELLRDAFTRLIEHVDELTDGLTDQLACYRPTPSANSIAWLLWHSARVQDIQVAHVAGVEEVWTRDGWVDRFGLDLPRHDTGYGHRPEDVAKVRAPADLLSGYYHAVHKLTLEYIAGMTADELSRVVDTSWNPPVTVSARLVSIVDDCAQHLGQAAYLRGIAEGGS,soluble
5,MGSDKIHHHHHHMLNNYMSILSLNENDNDIKSLTKARPLASIPIAGRYRIIDFILSNLVNSGVKNIGILTQCKSRSLLDHLGSGKPWDLDRKLNGLFIFNFSGITSTLSDIEMLKSNMEYLYRSTQEKVILSSSAVICNIDFQRAAEFHEKSGKDITLIYKRTNNGKRKFLNCSVLNMDKNNNVISIGKNTGLDDVQNISLGMFIMNKKLLINILNNCIRTGFSLSLKQCIRKHMNNFTVNAYEFNGYAEYIDSVKSYYKVNMDMLNLDINREVFFKNGLIYTKVKDEAPTKYFNDSEVCNSLIANGSLIHGQIENSIIGRRVTISKGARIKNCVIMQNCTIKENVDLTNVIVDKNVIIDENTVLKGGKEFPLVIEKKSIYSEV,not soluble
6,GSKFLNKRLSEREFDPDIHCGVIDLDTKKPCTRSLTCKTHSLTQRRAVQGRRKRFDVLLAEHKNKTREKELIRH,soluble
7,MSKDEGKRKKESVVDLTRFLDKEIRVKFQGGREASGVLRGFDQLLNMVLDDCREYLRDPQNPSVVGDETRQLGLIVARGTAITVVSPADGLEQIANPFATQEEE,not soluble
